Reference: PMC9772109 (Immunity, 2022)

Target: H1 HA (recombinant HA of Figure 4E) (Influenza A virus, H1 subtype; strain …, UniProt A0A1J0CXU0)
Test: BLI

B1: 789-203-3C12 AA variant mAb (Cys33Ala/Cys52Ala heavy chain with the 789-203-3C12 light chain), IgG (antibody, V domains shown)
VH: QVQLQESGPGLVKPSEILSLTCAVSGGSFSSYAWGWIRQPPGKGLEWIGSIAGSGGSNYLNPSLKSRVTLSVDTSKNQFSLILNSVTAADTAVYYCAREGITIFGVVIPRVLDSWGQGAVVTVSS
VL: DIQMTQSPSSLSASVGDTVTITCRASQSISSWLAWYQQKPGKAPNLLIYRASTLQSGVPSRFSGSGSGTDFTLTISSLQSEDFATYFCQQSTSSPFTFGPGTKLDIK
B1: binds.
